Experimental data reported in patent US7166568B1, “Compositions and methods to inhibit formation of the C5b-9 complex of complement” (Oklahoma Medical Research Foundation, priority 1998, dated 2007).
Numbering of substitutions follows the chain as printed. “Also recorded” adds a separate entry of the source. Non-standard residues stand in square brackets, D forms with d. No end group written: not given here. allyl‑C = allyl-modified terminal Cys; allyl‑K = allyl-modified terminal Lys

T1: hu CD59 (Homo sapiens, UniProt P13987)
T1 construct: human erythrocyte membrane glycoprotein CD59 were purified; from tissue; host or cells: human erythrocyte membranes
T1 sequence (P13987 26-102): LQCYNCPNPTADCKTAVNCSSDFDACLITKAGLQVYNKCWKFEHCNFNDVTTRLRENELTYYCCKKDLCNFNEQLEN

T2: human erythrocyte membrane glycoprotein CD59 (purified) (human, UniProt P13987 26-102, biotinylated with NHS-LC-biotin where used as biotin-CD59)
T2 construct: Purified from human erythrocyte membranes; Used as biotin-CD59 in the microplate assay and put back into chicken erythrocytes (chE) for the hemolytic assays; it may hold a C-terminal GPI signal that the purified protein lacks; also called hu CD59; biotin-CD59
T2 sequence: T1 sequence (P13987 26-102)

B1: rb CD59: rabbit CD59 cloned by the applicant (GenBank AF040387), expressed recombinantly with TAG on SV-T2 cells (protein)
chain: EQKLISEEDLNSLMCYHCLLPSPNCSTVTNCTPNHDACLTAVSGPRVYRQCWRYEDCNFEFISNRLEENSLKYNCCRKDLCNGPEDDG
B2: hu CD59: Human CD59 antigen, 18–21 kDa plasma membrane protein, inhibitor of the C5b-9 membrane attack complex; expressed recombinantly with TAG (protein, UniProt P13987 26-102, looked up)
CD59 glycoprotein: T1 sequence (P13987 26-102)
modifications: TAG epitope tag
B3: Ch6R: rabbit 42–58 substituted in hu CD59 (protein)
chain: EQKLISEEDLNLQCYNCPNPTADCKTAVNCSSDFDACLITKAGLQVYNKCWKYEDCNFEFISNRLEENSLTYYCCKKDLCNFNEQLEN
B4: Ch6: hu CD59 residues 42–58 substituted into rb CD59 (protein)
chain: B1 chain with Y54F, D56H, E60N, F61D, I62V, S63T, N64T, E67R, S70E
B5: BSA-conjugated hu C9 peptide 359-384 (peptide)
peptide: [allyl‑K]CLGYHLDVSLAFSEISVGAEFNKDD[allyl‑C]
modifications: also: coupled to BSA
notes: Synthetic peptide, custom ordered, adsorbed to microplates as a BSA conjugate; also called BSA-peptide conjugate

What follows are molecules tested against T3, hu C5b-9 (hu C5b67 with hu C8 and hu C9) (Homo sapiens, UniProt P02748+P07357) (assay: Assay of MAC inhibitory function of recombinant CD59 on transfected SV-T2 cells, hu C8 and C9). Details: CD59 construct expressed on SV-T2 cells; hu C5b67, 2 μM hu C8 and 5 μM hu C9; BCECF dye release.
T3 construct: human complement proteins (C5b7, C8 and C9) and rabbit complement proteins C8 and C9 were purified; from tissue; host or cells: human serum/plasma (C8 and C9 purified; C5b67 deposited from C8-depleted human serum)
Type: cell-based
Procedure: (§1) Expression of CD59 constructs in SV-T2 cells—SV-T2 cells were transfected with hu, rb, or chimeric TAG-CD59 pcDNA3 by electroporation as previously described (Zhou, Q., Zhao, J., Hüsler, T., and Sims, P. J. (1996) Mol. Immunol. 33, 1127–1134). After 48 hr, stable transfectants were selected with DMEM complete medium containing 1 mg/ml geneticin for 10 days. If episomal replication in the transfected cells was desired, 8×10^6 SV-T2 cells were transfected with 120 μg plasmid DNA by electroporation using GENE PULSE™ (Bio-rad) at 360 V and 500 μF (Zhou, Q., Zhao, J., Hüsler, T., and Sims, P. J. (1996) Mol. Immunol. 33, 1127–1134). Geneticin-selected cells were stained with mAb 9E10 against TAG epitope followed by FITC-conjugated goat antibody against mouse IgG, and sorted by flow cytometry (FACStar Plus; Becton Dickinson). Individual clones were then obtained by limiting dilution in DMEM containing 0.5 mg/ml geneticin. Comparison was made to clonal cell lines derived by transfection with pcDNA3, lacking insert (vector-only controls).
Measurement of cell surface TAG-CD59—The cell surface expression of each TAG-CD59 construct in transfected SV-T2 cells was quantified by the binding at saturation of mAb 9E10 (against TAG epitope) as previously described by Zhou, Q., Zhao, J., Hüsler, T., and Sims, P. J. (1996) Mol. Immunol. 33, 1127–1134. Following growth to near confluence, cells were detached and incubated for 30 min at 23° C. with mAb 9E10 (100 μg/ml) in HBSS containing 1% BSA. After washing with HBSS containing 1% BSA, the cells were incubated (20 min at 23° C.) with FITC conjugated goat anti-mouse IgG at a final concentration of 10 μg/ml. The fluorescence was determined by flow cytometry (FACScan, Becton Dickinson) as described previously by Zhou, Q., Zhao, J., Hüsler, T., and Sims, P. J. (1996) Mol. Immunol. 33, 1127–1134.
Assay of MAC inhibitory function—The complement-inhibitory activity of recombinant CD59 expressed on the transfected SV-T2 cells was evaluated by minor modification of methods previously described (Zhou, Q., Zhao, J., Hüsler, T., and Sims, P. J. (1996) Mol. Immunol. 33, 1127–1134, and Zhao, J., Rollins, S. A., Maher, S. E., Bothwell, A. L., and Sims, P. J. (1991) J. Biol. Chem. 266, 13418–13422). For cell clones expressing each chimeric CD59 construct, huC5b67 was deposited on the plasma membrane and susceptibility to the lytic activity of either hu C8 and C9 or rb C8 and C9 was measured and compared to identically-treated clones expressing wild-type hu or rb CD59. […] MAC-mediated cell lysis was determined from the measured release of BCECF dye from the cytoplasm, with correction for non-specific dye leak from matched controls omitting C8 and C9, as previously described by Zhou, Q., Zhao, J., Hüsler, T., and Sims, P. J. (1996) Mol. Immunol. […]

Question: With B1 as the molecule, how does the “MAC-inhibitory function towards hu C5b-9 (protection from lysis)” value read?
Answer: The value was “virtually no inhibition of the lytic action of MAC was observed”.

Question: Which “MAC-inhibitory function towards hu C5b-9 (protection from lysis)” value does the source give for B2 here?
Answer: The value was “nearly completely protected from lysis by hu C5b-9”.

Same assay, conditions: SV-T2 clones; hu versus rb C8 and C9 used to assemble the C5b-9 complex

Question: B3 was tested. Which “species-selective complement inhibitory function compared with full-length hu or rb CD59” value did it give?
Answer: The value was “functionally indistinguishable from rb CD59”.

Question: How did the “species-selective complement inhibitory function compared with full-length hu or rb CD59” value turn out when B4 was run?
Answer: Its value is “functionally indistinguishable from native hu CD59”.

The molecules below were run against T4, C5b-9 assembled from rb C8 and C9 (Oryctolagus cuniculus, UniProt P48747+P98136) (assay: Assay of MAC inhibitory function of recombinant CD59 on transfected SV-T2 cells, rb C8 and C9). Details: CD59 construct expressed on SV-T2 cells; hu C5b67, 4 μM rb C8 and 5 μM rb C9; BCECF dye release.
T4 construct: rabbit complement proteins C8 and C9 were purified; from tissue; host or cells: rabbit serum/plasma (C8, C9); C8-depleted human serum (C5b67)
Type: cell-based, rabbit
Procedure: as §1, with “Comparison was made to clonal cell lines derived by transfection with pcDNA3, lacking insert (vector-only controls).” left out
Measurement of cell surface TAG-CD59—The cell surface expression of each TAG-CD59 construct in transfected SV-T2 cells was quantified by the binding at saturation of mAb 9E10 (against TAG epitope) as previously described by Zhou, Q., Zhao, J., Hüsler, T., and Sims, P. J. (1996) Mol. Immunol. […] The fluorescence was determined by flow cytometry (FACScan, Becton Dickinson) as described previously by Zhou, Q., Zhao, J., Hüsler, T., and Sims, P. J. (1996) Mol. Immunol. […]

Question: B1 was tested. Which “MAC-inhibitory function towards C5b-9 assembled with rb C8 and C9 (protection from lysis)” value did it give?
Answer: Its value is “conferred a selective resistance to lysis by C5b-9 assembled from rb C8 and C9”.

Question: With B2 as the molecule, how does the “MAC-inhibitory function towards C5b-9 assembled with rb C8 and C9 (protection from lysis)” value read?
Answer: Its value is “protective effect of hu CD59 was not observed”.

These molecules were tested against T1, hu CD59 (assay: Inhibitory function of CD59 towards recombinant C9 constructs (hemolysis of C5b-8 chE with or without membrane CD59)). Details: chE with hu C5b67 and rb C8, 0 or 750 ng/ml CD59; compared with hu C9 and rb C9.
Type: cell-based
Procedure: (§2) Analysis of the inhibitory function of CD 59 towards recombinant C9 constructs—Hemolytic activity of each C9 construct was assayed using as target cells chE that were reconstituted with purified hu CD59, as described by Husler, et al., (1995). chE were washed extensively and suspended in GVBS, and the membrane C5b67 complex assembled by mixing cells (1.4×10^9/ml) with C5b6 (13 μg/ml) followed by addition of C7 (1 μg/ml). After 10 min., the C5b67 chE were diluted to 1.4×10^8/ml in GVBE and incubated (10 min. 37° C.) with 0 or 750 ng/ml CD59. In each case, the final concentration of Nonidet P-40 was less than 0.002% (v/v). After washing in ice-cold GVBE, 2.8×10^8 of these cells were incubated (37° C.) in a total volume of 100 μl with 1 ng rb C8 plus, between zero and 50 ng of recombinant C9, serially diluted in Opti-MEM I. Hemolysis was determined after 30 minutes at 37° C., with correction for nonspecific lysis, determined in the absence of C9. In each experiment, the inhibitory activity of CD59 towards each recombinant C9 construct was determined from the reduction in complement lysis of those cells reconstituted with CD59, versus the identically-treated cells omitting CD59, measured at the midpoint of the C9 titration (i.e., 50% hemolysis). In order to directly compare results obtained in experiments performed on different days, data for each recombinant C9 construct were normalized to results obtained in each experiment with hu C9.

Question: For “chimera #1: hu/rb C9 chimera R1-338H334–415R425–536”, which “sensitivity of the C9 construct to inhibition of MAC lytic activity by membrane CD59” value is on record?
Answer: Its value is “indistinguishable from hu C9 in its sensitivity to inhibition by CD59”.

Question: For “chimera #7: hu/rb C9 chimera R1-363H359–384R394–536”, which “sensitivity of the C9 construct to inhibition of MAC lytic activity by membrane CD59” value is on record?
Answer: The value was “small but significant reduction in inhibition of MAC lytic activity by CD59”.

Question: With “chimera #9: hu/rb C9 chimera H1-357R363–424H416–538” as the molecule, how does the “sensitivity of the C9 construct to inhibition of MAC lytic activity by membrane CD59” value read?
Answer: The value was “did not completely eliminate interaction with CD59”.

Question: How did the “sensitivity of the C9 construct to inhibition of MAC lytic activity by membrane CD59” value turn out when “chimera #2: hu/rb C9 chimera R1-363H359–538” was run?
Answer: The value was “unaffected”.

Question: Which “sensitivity of the C9 construct to inhibition of MAC lytic activity by membrane CD59” value does the source give for “Mutant hu C9: recombinant hu C9 expressed with Ala substitutions at Cys359 and Cys384” here?
Answer: The value was “did not significantly affect”.

Question: With “chimera #8: hu/rb C9 chimera H1-333R339–424H416–538” as the molecule, how does the “sensitivity of the C9 construct to inhibition of MAC lytic activity by membrane CD59” value read?
Answer: The value was “indistinguishable from rb C9 and virtually unaffected by the presence of membrane CD59; also recorded: completely eliminated hu-selective interaction with CD59”.

Question: Which “sensitivity of the C9 construct to inhibition of MAC lytic activity by membrane CD59” value does the source give for “chimera #4: hu/rb C9 chimera R1-363H359–415R425–536” here?
Answer: Its value is “indistinguishable from hu C9”.

Question: Which “sensitivity of the C9 construct to inhibition of MAC lytic activity by membrane CD59” value does the source give for “chimera #12: hu/rb C9 chimera H1-357R363–393H385–538” here?
Answer: The value was “did not significantly diminish CD59's capacity to inhibit the lytic activity of C9”.

Question: “chimera #3: hu/rb C9 chimera H1-357R363–536” was tested. Which “sensitivity of the C9 construct to inhibition of MAC lytic activity by membrane CD59” value did it give?
Answer: Its value is “indistinguishable from rb C9 and only weakly inhibited by CD59”.

Question: For “chimera #6: hu/rb C9 chimera R1-400H392–415R425–536”, which “sensitivity of the C9 construct to inhibition of MAC lytic activity by membrane CD59” value is on record?
Answer: The value was “failed to confer any recognition by CD59”.

Question: Which “sensitivity of the C9 construct to inhibition of MAC lytic activity by membrane CD59” value does the source give for “chimera #5: hu/rb C9 chimera R1-363H359–391R401–536” here?
Answer: The value was “conferred full recognition by CD59”.

Each molecule was assayed on chE containing membrane C5b-8 (assay: Hemolytic titration of recombinant C9 constructs against chE containing membrane C5b-8). Details: not given.
Type: cell-based, chicken
Procedure: as §2, with “In order to directly compare results obtained in experiments performed on different days, data for each recombinant C9 construct were normalized to results obtained in each experiment with hu C9.” left out

Question: How did the “hemolytic activity of the C9 construct” value turn out when “Mutant hu C9: recombinant hu C9 expressed with Ala substitutions at Cys359 and Cys384” was run?
Answer: Its value is “did not significantly affect”.

These molecules were tested against T2, human erythrocyte membrane glycoprotein … (assay: microplate assay: BSA-peptide coated wells, biotin-CD59 detected with Vectastain, OD 405 nm; corrected with a 20-fold excess of unlabeled CD59). Details: not given.
Procedure: Briefly, the BSA-peptide conjugate was adsorbed to 96 well polyvinyl microplates by overnight coating at 5 µg/ml in 0.1 M sodium bicarbonate, pH 8.5. After blocking with 1% (w/v) BSA, wells were washed and incubated (4 hrs., 37° C.) with between 0.5 and 1 µg/ml biotin-CD59. After washing, the bound biotin-CD59 was detected with Vectastain (Vector Labs, Burlingame, Calif.), developed by addition of p-nitrophenyl phosphate (2 mg/ml) and optical density recorded at 405 nm (VMaxMicroplate Reader, Molecular Devices, Inc.). In all experiments, correction was made for background adsorption of biotin-CD59 to BSA-coated wells (no peptide) and for nonspecific binding of biotin-CD59 to peptide, determined in the presence of a 20-fold excess of unlabeled CD59. As a positive control for specific binding, comparison was made in each experiment to wells coated with 2 µg/ml hu C9.

Question: Does B5 bind?
Answer: Result: binds
